This note sets out measurements from patent US20140235701, “NGF APTAMER AND APPLICATION THEREOF” (RIBOMIC INC., published 2014).

Substitutions are numbered along the chain they refer to.

T1: NT-4 (neurotrophin-4) (Homo sapiens, UniProt P34130 P34130:81-210)
T1 sequence: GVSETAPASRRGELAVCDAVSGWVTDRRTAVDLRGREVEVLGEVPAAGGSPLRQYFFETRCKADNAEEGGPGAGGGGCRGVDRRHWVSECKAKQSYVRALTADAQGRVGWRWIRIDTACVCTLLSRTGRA

T2: NT-3 (neurotrophin-3) (Homo sapiens, UniProt P20783 P20783:139-257)
T2 sequence: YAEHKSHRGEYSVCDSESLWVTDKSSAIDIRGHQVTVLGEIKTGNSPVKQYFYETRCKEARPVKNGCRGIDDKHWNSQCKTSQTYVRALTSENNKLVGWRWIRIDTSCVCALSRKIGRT

B1: SEQ ID NO: 87(2) (ssRNA)
RNA: GGGUCCUGCUCAAGAGUUUCCGUCUCGUGGGCUGUUACCC
modifications: 2'-OMe G1-3,U4,C6,G14,G16,C21,G22,U23,C26,G27,U28,C32,U35,C38-40; other C/U 2'-F, G 2'-OH, dA; 5',3' idT
B2: SEQ ID NO: 60 (ssRNA)
RNA: GGGAGAACUUCGACCAGAAGUUGGCACAUCCUGCUGCAGAGUUUCCGUCUCGGUGGCUGUUAUGUGCGCAUACAUGGAUCCUC
modifications: 2'-F C/U, dA, 2'-OH G
B3: SEQ ID NO: 61 (ssRNA)
RNA: B2 RNA with G23A, A38G, G39U, C51U, G52C, U54C, C57U
modifications: 2'-F C/U, dA, 2'-OH G

In the first data set the target is T3, NGF (nerve growth factor) (Homo sapiens, UniProt P01138 P01138:122-241). The experiment in a line: cell_activity; neurite; TF-1 <0.1. The conditions noted are these: tags: R&D Systems; chain copies: 2.
T3 sequence (P01138 122-241, one chain of several): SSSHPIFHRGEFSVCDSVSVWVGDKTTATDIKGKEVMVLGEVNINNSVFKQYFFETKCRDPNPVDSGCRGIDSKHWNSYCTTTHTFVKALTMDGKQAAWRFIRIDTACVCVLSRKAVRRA
For B1, half-maximal inhibition (IC50) required 0.107 nM. That is a sub-nanomolar value.

Molecule GGGUCCUGCUCAAGAGUUUCCGUCUCGUGGGCUGUUACCC (ssRNA, as 87(2) plus 2'-OMe G29-31) [SEQ ID NO: 87(3)] displayed an IC50 of 0.118 nM.

With GGGUCCUGCUCAAGAGUUUCCGUCUCGUGGGCUGUUACCC (ssRNA, as 87(2) plus 2'-OMe C9,U10,C11,G29-31) [SEQ ID NO: 87(4)], the IC50 came to 0.113 nM. This IC50 and that of the molecule before are within 1.5-fold of each other.

A further data set concerns the target T3, NGF (nerve growth factor). The experiment in a line: SPR; more than 40N control. The conditions noted are these: tags: R&D Systems; chain copies: 2.
As to B2, the binding result is reported as “binds”.

On to B3, for which the binding result is recorded as “binds”.

A further data set addresses T3, NGF (nerve growth factor). The experiment in a line: cell_activity; neurite; TF-1 >1. As to conditions: tags: R&D Systems; chain copies: 2.
Regarding GGGUCCUGUUGCUAAGUUUCCGUCUUAGUGACUGUUACCC (ssRNA, 2'-F C/U, dA, 2'-OH G) [SEQ ID NO: 105], it took 0.444 nM to reach half-maximal inhibition (IC50).

With GGGUCCUGACGUAUAGUUUCCGUCUGUAUGUCUGUUACCC (ssRNA, 2'-F C/U, dA, 2'-OH G) [SEQ ID NO: 101], the midpoint of inhibition, the IC50, lay at 0.994 nM.

For GGGUCCUGAUGUCAAGUUUCCGUCUUGAUGUCUGUUACCC (ssRNA, 2'-F C/U, dA, 2'-OH G) [SEQ ID NO: 104], the IC50 came out at 0.682 nM.

Turning to GGGUCCUGCUGCGUAGUUUCCGUCUGCGUGGUUGUUACCC (ssRNA, 2'-F C/U, dA, 2'-OH G) [SEQ ID NO: 103], inhibition was half-maximal at 0.766 nM (IC50). The IC50 values of the last two molecules are within 1.5-fold of each other.

On to GGGUCCUGCUGUGUAGUUUCCGUCUGCAUGGUUGUUACCC (ssRNA, 2'-F C/U, dA, 2'-OH G) [SEQ ID NO: 113], for which the half-inhibitory concentration (IC50) turned out to be 0.96 nM.

As to GGGUCCUGCUGCGUAGUUUCCGUCUGCGUAGCUGUUACCC (ssRNA, 2'-F C/U, dA, 2'-OH G) [SEQ ID NO: 106], the IC50 was 0.77 nM.

As to GGGUCCUGCCGCGUAGUUUCCGUCUGCGUGGCUGUUACCC (ssRNA, 2'-F C/U, dA, 2'-OH G) [SEQ ID NO: 110], the IC50 is 0.999 nM.

For GGGUCCUGCUGCGUAGUUUCCUUCUGCGUGGCUGUUACCC (ssRNA, 2'-F C/U, dA, 2'-OH G) [SEQ ID NO: 109], the IC50 came to 0.687 nM. This IC50 and that of the molecule before are within 1.5-fold of each other.

As for GGGUCCUGUUGCGUAGUUUCCGUCUGCGUGACUGUUACCC (ssRNA, 2'-F C/U, dA, 2'-OH G) [SEQ ID NO: 108], inhibition was half-maximal at 0.403 nM (IC50).

GGGUCCUGCUGCGAAGUUUCCGUCUUCGUGGCUGUUACCC (ssRNA, 2'-F C/U, dA, 2'-OH G) [SEQ ID NO: 107] yielded an IC50 of 0.967 nM.

For the molecule GGGUCCUGUGGAAGAGUUUCCGUCUCGUCCACUGUUACCC (ssRNA, 2'-F C/U, dA, 2'-OH G) [SEQ ID NO: 89], the IC50 turned out to be 0.959 nM.

GGGUCCUGAGCAAGAGUUUCCGUCUCAUGCUCUGUUACCC (ssRNA, 2'-F C/U, dA, 2'-OH G) [SEQ ID NO: 102] came in with a half-maximal inhibitory concentration (IC50) of 0.908 nM. The IC50 values of the last two molecules are within 1.5-fold of each other.

A further data set has as its target T1, NT-4 (neurotrophin-4). The experiment in a line: SPR; scarcely bound. As to conditions: tags: R&D Systems; chain copies: 2. The protocol: (§1) The binding activity of these shortened forms to NGF and NT-3 was measured by the surface plasmon resonance method. For the measurement method, BIAcore2000 manufactured by BIAcore was used and CM5 reactive with amino group was used as a sensorchip, as shown in Example 1. The protein was immobilized in the same manner as in Example 1 by using ethyl-3-carbodiimide hydrochloride and N-hydroxysuccinimide. […] After protein immobilization, blocking with ethanolamine-HCl was performed. The amount of immobilized NGF and NT-3 was 3,000-4,000 RU and 3,000-5,000 RU, respectively. The aptamer for an analyte was prepared to 0.15 μM-0.5 μM. The running buffer and regeneration solution were the same as those in Example 1. NT-3 was immobilized on FC2, and NGF on FC3, and the final sensorgram was obtained by subtracting the results of FC1.
(§2) Then, the aptamers were subjected to shortening to 40 mer in the same manner as with consensus secondary structure 1. […] NT-4 was measured in the same manner as in NT-3.
(§3) The shortened sequences were measured for the binding to NGF, NT-3, NT-4 by the surface plasmon resonance method. The measurement was performed in the same manner as in Example 13.
(SPR reads the build-up and loss of mass on a sensor chip optically.)
With GGGUCCUGUUGCUAAGUUUCCGUCUUAGUGACUGUUACCC (ssRNA, 2'-F C/U, dA, 2'-OH G) [SEQ ID NO: 105], the binding result is “no binding”.

Take GGGUCCUGAUGUCAAGUUUCCGUCUUGAUGUCUGUUACCC (ssRNA, 2'-F C/U, dA, 2'-OH G) [SEQ ID NO: 104]: the binding result was “no binding”.

Turning to GGGUCCUGCUGCGUAGUUUCCGUCUGCGUGGUUGUUACCC (ssRNA, 2'-F C/U, dA, 2'-OH G) [SEQ ID NO: 103], the binding result is given as “no binding”.

As for GGGUCCUGCUGUGUAGUUUCCGUCUGCAUGGUUGUUACCC (ssRNA, 2'-F C/U, dA, 2'-OH G) [SEQ ID NO: 113], the binding result is reported as “no binding”.

For the molecule GGGUCCUGCUGCGUAGUUUCCGUCUGCGUAGCUGUUACCC (ssRNA, 2'-F C/U, dA, 2'-OH G) [SEQ ID NO: 106], the binding result is listed as “no binding”.

Turning to GGGUCCUGCCGCGUAGUUUCCGUCUGCGUGGCUGUUACCC (ssRNA, 2'-F C/U, dA, 2'-OH G) [SEQ ID NO: 110], the binding result was “no binding”.

For the molecule GGGUCCUGCUGCGUAGUUUCCUUCUGCGUGGCUGUUACCC (ssRNA, 2'-F C/U, dA, 2'-OH G) [SEQ ID NO: 109], the binding result is on record as “no binding”.

GGGUCCUGUUGCGUAGUUUCCGUCUGCGUGACUGUUACCC (ssRNA, 2'-F C/U, dA, 2'-OH G) [SEQ ID NO: 108]: the binding result is “no binding”.

Turning to GGGUCCUGCUGCGAAGUUUCCGUCUUCGUGGCUGUUACCC (ssRNA, 2'-F C/U, dA, 2'-OH G) [SEQ ID NO: 107], the binding result is “no binding”.

Another data set has as its target T2, NT-3 (neurotrophin-3). The experiment in a line: SPR; scarcely bound. As to conditions: tags: R&D Systems; chain copies: 2. The method, then: as §1, §2, §3
In the case of GGGUCCUGUUGCUAAGUUUCCGUCUUAGUGACUGUUACCC (ssRNA, 2'-F C/U, dA, 2'-OH G) [SEQ ID NO: 105], the binding result is given as “no binding”.

With GGGUCCUGAUGUCAAGUUUCCGUCUUGAUGUCUGUUACCC (ssRNA, 2'-F C/U, dA, 2'-OH G) [SEQ ID NO: 104], the binding result is “no binding”.

For GGGUCCUGCUGCGUAGUUUCCGUCUGCGUGGUUGUUACCC (ssRNA, 2'-F C/U, dA, 2'-OH G) [SEQ ID NO: 103], the binding result is “no binding”.

Regarding GGGUCCUGCUGUGUAGUUUCCGUCUGCAUGGUUGUUACCC (ssRNA, 2'-F C/U, dA, 2'-OH G) [SEQ ID NO: 113], the binding result is “no binding”.

As for GGGUCCUGCUGCGUAGUUUCCGUCUGCGUAGCUGUUACCC (ssRNA, 2'-F C/U, dA, 2'-OH G) [SEQ ID NO: 106], the binding result is on record as “no binding”.

Consider GGGUCCUGCCGCGUAGUUUCCGUCUGCGUGGCUGUUACCC (ssRNA, 2'-F C/U, dA, 2'-OH G) [SEQ ID NO: 110], for which the binding result was “no binding”.

Consider GGGUCCUGCUGCGUAGUUUCCUUCUGCGUGGCUGUUACCC (ssRNA, 2'-F C/U, dA, 2'-OH G) [SEQ ID NO: 109], for which the binding result is on record as “no binding”.

Consider GGGUCCUGUUGCGUAGUUUCCGUCUGCGUGACUGUUACCC (ssRNA, 2'-F C/U, dA, 2'-OH G) [SEQ ID NO: 108], for which the binding result was “no binding”.

For GGGUCCUGCUGCGAAGUUUCCGUCUUCGUGGCUGUUACCC (ssRNA, 2'-F C/U, dA, 2'-OH G) [SEQ ID NO: 107], the binding result is “no binding”.

The term IC50 denotes the point on the concentration scale where inhibition reaches its midpoint.
